In article PMC6561935, “Hsp90 middle domain phosphorylation initiates a complex conformational program to recruit the ATPase-stimulating cochaperone Aha1” (Nature Communications, 2019):
“And” between values parts separate entries of the source, which are not always exact repeats. Equal entries are not always repeated.

B1: purified human Hsp90α-Y313E (natural protein)
chain: not shown
notes: Hsp90α (heat shock protein 90 alpha), human; 2H/13C Ile-labelled for NMR; also called Hsp90-Y313E; Y313E-Hsp90; source: purified
B2: Aha1-N (N-terminal domain of human Aha1) (domain or fragment, UniProt O95433 1-162, looked up)
chain: MAKWGEGDPRWIVEERADATNVNNWHWTERDASNWSTDKLKTLFLAVQVQNEEGKCEVTEVSKLDGEASINNRKGKLIFFYEWSVKLNWTGTSKSGVQYKGHVEIPNLSDENSVDEVEISVSLAKDEPDTNLVALMKEEGVKLLREAMGIYISTLKTEFTQG
notes: Aha1, human, N-terminal domain, amino acids 1-162; source: E. coli, purified
B3: human Aha1 N-terminal domain (domain or fragment, UniProt O95433 1-162, looked up)
chain: B2 chain
notes: Aha1, human, N-terminal domain (Aha1-N, amino acid 1-162); the ITC methods speak only of 'Aha1 constructs'; source: purified
B4: Aha1-C (C-terminal domain of human Aha1) (domain or fragment, UniProt O95433 201-338, looked up)
chain: GVKIPTCKITLKETFLTSPEELYRVFTTQELVQAFTHAPATLEADRGGKFHMVDGNVSGEFTDLVPEKHIVMKWRFKSWPEGHFATITLTFIDKNGETELCMEGRGIPAPEEERTRQGWQRYYFEGIKQTFGYGARLF
notes: Aha1, human, C-terminal domain, amino acids 201-338; source: E. coli, purified
B5: purified Aha1-C (domain or fragment, human, UniProt O95433 201-338, looked up)
chain: B4 chain
notes: Aha1, human, C-terminal domain, amino acid 201-338; perdeuterated for NMR; source: purified
B6: human Aha1 C-terminal domain (domain or fragment, UniProt O95433 201-338, looked up)
chain: B4 chain
notes: Aha1, human, C-terminal domain (Aha1-C, amino acid 201-338); the ITC methods speak only of 'Aha1 constructs'; source: purified

Experiments:
[1] = target: the molecule itself; test: cross-linking; purified Hsp90 (with or without 10 mM AMPPNP, 10 min on ice) mixed with equimolar Aha1-His, 30 min on ice; 1 mM BDP-NHP (lysine-lysine), 30 min at room temperature; 25 mM HEPES pH 7.3, 100 mM NaCl; LC-MS (ReACT, PRM)
[2] = target: T1, Hsp90-Y313E (human, UniProt P07900 1-732, Y313E); test: ITC; without AMPPNP; Hsp90 (30 µM) in the cell, Aha1 constructs (380-450 µM) in the syringe; 20 mM Tris pH 7.5, 100 mM NaCl, 0.5 mM EDTA, 5 mM MgSO4, 1 mM TCEP, 36 °C; three technical repeats; conditions: both partners purified
T1 construct: Heat shock protein 90 alpha, human, phosphomimetic mutant Y313E; also called Y313E-Hsp90; Hsp90α-Y313E; source: E. coli, purified

[3] = target: T2, Human wild-type Hsp90 (Hsp90α) (human, UniProt P07900 1-732); test: as above; conditions: both partners purified
T2 construct: Heat shock protein 90 alpha, human; also called Hsp90-wt; WT

[4] = target: T1, Hsp90-Y313E; test: ITC; with 2 mM AMPPNP in cell and syringe; Hsp90 (30 µM) in the cell, Aha1 constructs (380-450 µM) in the syringe; 20 mM Tris pH 7.5, 100 mM NaCl, 0.5 mM EDTA, 5 mM MgSO4, 1 mM TCEP, 36 °C; three technical repeats; conditions: both partners purified
[5] = target: T2, Human wild-type Hsp90 (Hsp90α); test: as above; conditions: both partners purified
[6] = target: T3, human Hsp90α, wild-type (human, UniProt P07900 1-732); test: ITC; PEAQ-ITC, 36 °C; Hsp90 in the cell (30 μM), Aha1 constructs in the syringe (380-450 μM); 20 mM Tris pH 7.5, 100 mM NaCl, 0.5 mM EDTA, 5 mM MgSO4, 1 mM TCEP; 2 mM AMPPNP in cell and syringe; three technical repeats; conditions: both partners purified
T3 construct: Hsp90α (heat shock protein 90 alpha), human; also called WT; wild-type Hsp90; source: purified

[7] = target: T4, human Hsp90α Y313E (phosphomimetic mutant) (human, UniProt P07900 1-732, Y313E); test: as above; conditions: both partners purified
T4 construct: Hsp90α, human, with the phosphomimetic substitution Y313E (numbering based on human Hsp90α); also called Hsp90-Y313E; source: purified

[8] = target: T3, human Hsp90α, wild-type; test: ITC; PEAQ-ITC, 36 °C; Hsp90 in the cell (30 μM), Aha1 constructs in the syringe (380-450 μM); 20 mM Tris pH 7.5, 100 mM NaCl, 0.5 mM EDTA, 5 mM MgSO4, 1 mM TCEP; no AMPPNP; three technical repeats; conditions: both partners purified
[9] = target: T4, human Hsp90α Y313E (phosphomimetic …); test: as above; conditions: both partners purified
[10] = target: B1; test: ITC; Supplementary Table 3, with 2 mM AMPPNP in cell and syringe: Hsp90 30 μM in the cell, Aha1 constructs 380-450 μM in the syringe; 36 °C; 20 mM Tris pH 7.5, 100 mM NaCl, 0.5 mM EDTA, 5 mM MgSO4, 1 mM TCEP; conditions: both partners purified

Row | Kd [2] | Kd [4] | Kd [5] | Kd [6] | Kd [7] | Kd [9] | Binder | other results
1 |  |  |  |  |  |  | B1 | binding result [1]: binds
2 | 11.2 µM | 8.9 µM | 4.9 µM |  |  |  | B2 | Kd [3]: 6.8 µM
3 |  |  |  | 5.69 µM and 4.69 µM and 4.25 µM and 4.88 µM | 7.97 µM and 8.96 µM and 9.66 µM and 8.86 µM | 11.6 µM and 12.2 µM and 9.96 µM and 11.2 µM | B3 | Kd [8]: 7.2 µM and 6.1 µM and 7.22 µM and 6.84 µM
4 | 5.5 µM | 2.3 µM | 15.6 µM |  |  |  | B4 | 
5 |  |  |  |  |  |  | B5 | fold reduction of Kd against wild-type Hsp90 (both with AMPPNP) [10]: ~7 fold; fold reduction of Kd with AMPPNP against without AMPPNP [10]: > 2 fold
6 |  |  |  | 17 µM and 13.3 µM and 16.4 µM and 15.6 µM | 2.02 µM and 2.27 µM and 2.62 µM and 2.3 µM | 7.71 µM and 4.59 µM and 4.04 µM and 5.45 µM | B6 | 
